Earlier results in paper PMC8508339.
pKd: −log10 of the molar value.

Legend:
[1] = biological target: cholecystokinin (Homo sapiens) (UniProt P06307)
gastrin (Homo sapiens) = gastrin (Homo sapiens) (UniProt P01350)
Sequence of UniProt P01350 (P01350 whole entry, looked up): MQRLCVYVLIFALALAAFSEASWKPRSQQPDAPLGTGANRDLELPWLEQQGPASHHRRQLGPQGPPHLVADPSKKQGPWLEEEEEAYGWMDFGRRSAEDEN

Sequence of UniProt P06307 (P06307 whole entry, looked up): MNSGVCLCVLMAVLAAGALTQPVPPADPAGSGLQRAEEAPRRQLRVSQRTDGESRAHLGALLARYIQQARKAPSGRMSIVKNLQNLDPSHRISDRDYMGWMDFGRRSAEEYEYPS

For “CCK-B receptor (CCK2) (from UniProt P32239)”, the pKd [1] is listed as 9.00 and the pKd (gastrin (Homo sapiens)) is listed as 9.00.
